The Immune Epitope Database (IEDB)

Biological target: HLA-A*02:01
Assay: IEDB peptide-MHC binding, purified MHC/competitive/radioactivity; ≥ and ≤ were set here for values at or beyond the usual limits of such assays
Details: source organism: Human alphaherpesvirus 1

Sequence | IC50
YFHALVYFV | 133 nM
YLREYVTRL | 115 nM
SQLAHLVYV | 62 nM
FLCAKCLGA | 137 nM
VLDEVMSTL | 45 nM
YVPPDMRGV | 511 nM
GLGRHLWRL | 133 nM
RLLQSFLKV | 82 nM
YLCDNFCPA | 27 nM
VLCGIAWYV | 7.9 nM
LLAKMLFYL | 5.6 nM
KQLNYCHLI | 398 nM
ALAFDSTRV | 649 nM
GLLGSLVGA | 3.7 nM
LLYLITNYL | 11 nM
KLLALLGQV | 33 nM
ILVVSLLLV | 205 nM
FVWQERAAV | 261 nM
MVIACLLVA | 166 nM
GLYLCVVYV | 47 nM
ALLGAWPAV | 2.5 nM
VLGAAVYAL | 100 nM

Sequence | IC50
ALPDTVAPV | 9.1 nM
GLARLDALV | 13 nM
LLSALGLSV | 8.9 nM
RLARCLTPA | 23 nM
CLAEYCTSL | 186 nM
ILLENLMRA | 19 nM
RLATHLRAV | 159 nM
ALLQQTWTL | 0.39 nM
ALGERLDAV | 25 nM
LLFVLLVAL | 1130 nM
FADSDGHYV | 142 nM
FVADVQHAA | 7750 nM
RLPRYLACL | 76 nM
SLDAKQWSV | 7.5 nM
FMSVVNTNI | 60 nM
SLYDVEFDA | 9.7 nM
FLARFWTRA | 48 nM
FTLPVLTFV | 1.1 nM
FLSAKTLTV | 11 nM
LLLISMYAL | 4.7 nM
ILDAARPAV | 99 nM
RLFDFFSRV | 0.2 nM

Sequence | IC50
AMNRRIMNV | 1190 nM
KLLWAVEPL | 12 nM
TISKPSEAV | 4780 nM
MLCGFSPAL | 8.5 nM
ALGMRGLVL | 491 nM
GLAVDLYAL | 12 nM
FMPDFSRVI | 101 nM
AVVPIIPFL | 1030 nM
NIGAYVVLV | 282 nM
GLAVAMEV | 25 nM
GIAWYVTSI | 143 nM
GMHPRGVHA | ≥ 70000 nM
ILIEGIFFA | 0.17 nM
FTATSIARV | 74 nM
DLWNVMYTL | 333 nM
FVVWALLGL | 196 nM
VLANFCSAL | 14 nM
LITDDGEVV | 13700 nM
FMQPDNANL | 47 nM
VIACLLVAV | 205 nM
SMFASCNLL | 29 nM
VLLGAPVVV | 14 nM

Sequence | IC50
LVVTAIVYV | 187 nM
TLLDQNNAL | 39 nM
FLTCTDRSV | 83 nM
YVLHFACLV | 7.6 nM
RLPLYEALV | 95 nM
LLFNSLYPA | 1.5 nM
SLSTYTVPI | 13 nM
FLSDSEAEA | 2.6 nM
AVWISLAQV | 259 nM
LLPEIAPNA | 30 nM
ALVAWLTHA | 15 nM
FLRSCHWVL | 582 nM
LLAPGPLFV | 5.6 nM
TIHCFFFAV | 108 nM
SLRNVLAAV | 5.4 nM
RVYNIIQLV | 19700 nM
QLLSAVDYI | 127 nM
LLLRQWLHV | 207 nM
VLPATFAAV | 11 nM
AMDLVLAAV | 4.4 nM
ALMAGYFKI | 49 nM
RLPHICYPV | 17 nM

Sequence | IC50
SLLSLEHTL | 55 nM
VLAAGVLVV | 234 nM
FLSTLPSDV | 76 nM
YLACELLPA | 4.7 nM
VVTAIVYVV | 265 nM
RMFGMPTAL | 5.5 nM
GLDEQQLDV | 1180 nM
LLLHSLTPL | 6.9 nM
MLIDLGLDL | 14 nM
LLGQVQTYV | 18 nM
KLCSPVFAI | 9.3 nM
LLLAVAVYA | 93 nM
CMFGVVSPA | 9.5 nM
KIFRCLTVL | 159 nM
TLIPRLFAL | 35 nM
FLAASALGV | 7.4 nM
QLLDPPAAV | 186 nM
ILFLWSFLV | 0.36 nM
FMHIWLQAA | 81 nM
